This note sets out measurements from patent US20200291075A1 (TRUSTEES OF PRINCETON UNIVERSITY, published 2020).

For test [1], the target named is T1, YFP-SH2 (human, UniProt P00519 112-232).
T1 construct: domain: SH2 domain; also called SH2-tagged YFP; EZ-L703
T1 sequence (looked up): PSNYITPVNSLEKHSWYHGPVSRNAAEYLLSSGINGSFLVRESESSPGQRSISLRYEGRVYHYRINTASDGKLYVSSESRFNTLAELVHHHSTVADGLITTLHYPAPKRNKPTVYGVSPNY
Kind of test: BLI; binder on Ni-NTA sensor, YFP-SH2 in solution; lit conformation, ambient light. On the technique in general: BLI is a label-free optical method that tracks binding on a fibre tip over time.
Method: (§1) Ni-NTA sensors (ForteBio) were first equilibrated using Buffer A for 10 minutes prior the measurement. A volume of 200 μL of Buffer A or protein solutions (previously dialyzed with Buffer A when needed) was added to clear, 96-well plates. During the experimental run, the Ni-NTA sensors were first immersed in Buffer A to record the baseline. […] The sensors were then transferred back into Buffer A to remove unbound protein. […] To measure the unbinding rate constant (koff), the sensors were then moved to wells containing Buffer A to trigger dissociation of YFP-SH2. To measure binding kinetics of the light state, the lid of the Octet remained open during the measurement and a blue LED panel was held above the 96-well plate, maintaining constant blue illumination for the duration of the experiment. […] The raw binding and unbinding data were simultaneously fit to models of the binding and unbinding reactions:

Test [2] has as its target T1, YFP-SH2. Kind of test: BLI; lit-state against dark-state OptoMB variants.
Method: as §1
The target of test [3] is T1, YFP-SH2. Kind of test: BLI; binder on Ni-NTA sensor, YFP-SH2 in solution; lit conformation, 450 nm light.
Method: as §1
The target in test [4] is T1, YFP-SH2. Put plainly: LCAC in batch; His-tag bound OptoMB on Talon cobalt resin, target from crude E. coli lysate bound in the dark.
Method: (§2) After elution, beads were washed with imidazole to recover any remaining protein bound to the beads in order to estimate the capacity and yields of the resin.
(§3) The Resin was rotated in 50 mL conical tubes (covered with aluminum foil) at room temperature for 20 minutes and then poured in 20 mL BioRad glass Econo-Columns and washed with Buffer A (50 column volumes). […] The mixture was then vertically rotated gently for 45 minutes in 15 ml conical tubes.
Test [5] has as its target T1, YFP-SH2. Put plainly: BLI; His-tagged binder on Ni-NTA sensor, YFP-SH2 in solution; light conformation.
Method: as §1
Test [6] has as its target T1, YFP-SH2. Kind of test: LCAC in batch, Talon resin; share of the resin-bound target eluted by blue light.
Method: as §2, §3

B1: OptoMB (His6-tagged, wild-type AsLOV2) (designed binder)
chain: HHHHHHSSGENLYFQGHASGSSVSSVPTKLEVVAATPTSLLISWDAPMSSSSVYYYRITYGETGGNSPVQEFTVPYSGLERIEKNFVITDPRLPDNPIIFASDSFLQLTEYSREEILGRNCRFLQGPETDRATVRKIRDAIDNQTEVTVQLINYTKSGKKFWNLFHLQPMRDQKGDVQYFIGVQLDGTEHVRDAAEREGVMLIKKTAENIDEAAGSSTATISGLSPGVDYTITVYAWGEDSAGYMFMYSPISINYRTC
notes: also called OptoMB 1; OptoMB 2
In the test with YFP-SH2 [1], B1 returned a Kd greater than 100 µM, a koff of 0.34 s⁻¹ and a kon of less than 1000 M⁻¹ s⁻¹. In addition, in the test with YFP-SH2 [2], the “fold change of kon and koff, light against dark” value is roughly 20 fold. In the test with YFP-SH2 [3], this molecule came in with a Kd greater than 100 µM, a koff of 0.21 s⁻¹ and an association rate constant (kon) of less than 1000 M⁻¹ s⁻¹. In addition, the “Resin Capacity” value with YFP-SH2 [4] was 5.85 mg/mL. In the test with YFP-SH2 [5], the off-rate (koff) stood at 0.21 s⁻¹ and the kon was less than 1000 M⁻¹ s⁻¹. Also, the “Yield (% of recovery from the resin)” value with YFP-SH2 [6] was 17.8%.

The term Kd denotes the concentration at which binding is half-saturated. Read a low Kd as a tighter complex. The term koff denotes the rate constant with which the complex falls apart. A lower koff goes with a long-lived complex. For orientation: kon means the rate constant with which the complex forms.
